Laboratory results: US20240376185A1 (SMIVET B V, published 2024)
Read-outs that look alike come from different tables or passages of the source.

How the values were obtained:
[1] = biological target: dog IgG (chrompure dog IgG) (dog)
[2] = biological target: dog IgG (chrompure dog IgG) (dog); remark: listed apart in the source
[3] = biological target: T1, Tetanus neurotoxin (TeNT), authentic tetanus holotoxin (Clostridium tetani, UniProt P04958 2-1315); assay: BLI (Octet Red96), biotinylated SDA on SA sensor, TeNT as analyte
[4] = biological target: T2, tetanus neurotoxin (TeNT), authentic tetanus holotoxin (Clostridium tetani, UniProt P04958 2-1315); assay: BLI (Octet Red96); avidity (bivalent for TeNT); format for this SDA not told
human serum albumin [5] = biological target: T3, human serum albumin (human, UniProt P02768 25-609); assay: ELISA, E. coli supernatant
T3 construct: mature; also called human Alb

human serum albumin [6] = biological target: T3, human serum albumin; assay: ELISA, coated albumin, E. coli supernatant
Horse albumin = biological target: T4, Horse albumin (horse, UniProt P35747 25-607); assay: BLI (Octet Red96), SDA on Ni-NTA sensor, albumin as analyte
T4 construct: also called Equine albumin; Equine Alb

Dog albumin = biological target: T5, Dog albumin (dog, UniProt P49822 25-608); assay: as above
T5 construct: also called Canine albumin; Canine Alb

Cat albumin = biological target: T6, Cat albumin (cat, UniProt P49064 25-608); assay: as above
T6 construct: also called Feline albumin; Feline Alb

[7] = biological target: T2, tetanus neurotoxin (TeNT), authentic …; assay: GT1b-TeNT inhibition ELISA
[8] = biological target: T2, tetanus neurotoxin (TeNT), authentic …; assay: GT1b-TeNT inhibition ELISA; remark: listed apart in the source
[9] = biological target: T2, tetanus neurotoxin (TeNT), authentic …; assay: ELISA: directly coated TeNT, anti-his6 PO
[10] = biological target: T2, tetanus neurotoxin (TeNT), authentic …; assay: ELISA: directly coated TeNT, anti-his6 PO; remark: listed apart in the source
[11] = biological target: T2, tetanus neurotoxin (TeNT), authentic …; assay: ELISA: directly coated TeNT, goat anti-llama Ig PO
[12] = biological target: T2, tetanus neurotoxin (TeNT), authentic …; assay: ELISA: directly coated TeNT, goat anti-llama Ig PO; remark: listed apart in the source
[13] = biological target: T2, tetanus neurotoxin (TeNT), authentic …; assay: bridging ELISA: coated TeNT, SDA, biotinylated TeNT, StrepPO (bivalent binding)
[14] = biological target: T2, tetanus neurotoxin (TeNT), authentic …; assay: as above; remark: listed apart in the source
[15] = biological target: T1, Tetanus neurotoxin (TeNT), authentic …

B1: SVT16-L123Q-GS2-SVG13M4-H6 (bispecific antibody)
chain: QVQLQESGGGSVQAGDSLRLSCAASGRTISNYAMGWFRQAPGKQREFVAAISRSDNTYYTDSVKGRFTISRDNAKNTLYLQMNSLKPEETAVYYCAADPNLMYESKWKYRALEAWGQGTQVTVSSGGGGSGGGSEVQLVESGGGLVQPGGSLRLSCEASGFTFDDYGMSWVRQAPGKGLEWVSSLTPNGGSTYYADSVKGRFTISRDNAKNTLYLQMNSLKPEDTALYYCAKNSYYGAMDYWGQGTQVTVSSHHHHHH
[1]
  maximal absorbance value: 0.69 A450
[2]
  Effective SDA Concentration at A450 0.2: 127 ng/mL

B2: SVT15L (VHH)
VHH: QVQLQESGGGLVQTGGSLRLSCRASGRAFANYHFGWFRQAPGKDREFVASISWKGGSTYYANFALGRFTSSVDRAESSVYLQMSGLTPEDTATYYCAAHDGGDWNYHTGMDYWGKGILVTVSS
[3]
  Kd: 772 pM
  koff: 8.57e-05 s⁻¹
  kon: 111000 M⁻¹ s⁻¹

B3: SVT06-GS3-SVT02-GS2-SVG06M4-H6 (bispecific antibody)
chain: QVQLQESGGGSVQAGGSLRLSCTASELSYDDYTIAWFRRAAGEGRVEDGEGVASITKSYDRAYDNKINYGHSVKGRFTISRDNAKNTVYLQMTDLLPSDTAVYYCALDITPPGGVGASLTEGFLFDYWGQGTQVTVSSGGGGSGGGGSGGGGSQVQLQQSGGGSVQAGGSLRLSCVGPQRTFSTYGMGWFRQAPGKEREFVAGINYKGDTTYYADSVKGRFTISRDNAKNTLYLQMDSLKPEDRAVYQCARKGGLGGDYRDAGQYRYWGQGTQVTVSSGGGGSGGGSEVQLVESGGALVQPGGSLRLSCAASGFPFSAYDMTWVRQAPGQGLEWVSTIHKSGGITTYADSVKGRFTISRDNAKNTLYLQMNNLESEDTAVYYCAKALRAHNSDYVGRNALGSWGQGTQVTVSSHHHHHH
[4]
  Kd: 130 pM
  koff: 4.27e-05 s⁻¹
  kon: 329000 M⁻¹ s⁻¹

B4: SVA04 (VHH, not shown: large carriers)
VHH: QVQLQQSGGGLVQAGGSLRLACAASGRTLSSYVMGWFRQAPGKEREFVAAISWSGGSTYYADSVKGRFTISRDNAKNTVYLQMNSLKPEDTAVYYCAATLRGSNRYYSGRVYDYWGQGTQVTVSS
Human serum albumin [5]
  binding result: no binding
Human serum albumin [6]
  absorbance at 450 nm: 0.085 A450

B5: SVA06L (VHH)
VHH: QVQLQESGGRLVQAEDSLRLSCAASGRTFVSYDMGWFRQAPGKEREFVAAINWRGYTTDYVDSVKGRFFISRDIAKSTVYLQMNNLKPEDTAVYYCAARQMSGSSRYSPPGRVGYDFWGQGTQVTVSS
Horse albumin
  Kd: 13500 pM
  koff: 0.00977 s⁻¹
  kon: 726000 M⁻¹ s⁻¹
Dog albumin
  Kd: 3160 pM
  koff: 0.00224 s⁻¹
  kon: 711000 M⁻¹ s⁻¹
Cat albumin
  Kd: 1200 pM
  koff: 0.000878 s⁻¹
  kon: 729000 M⁻¹ s⁻¹

B6: SVG06L (VHH)
VHH: QVQLQESGGALVQPGGSLRLSCAASGFPFSAYDMTWVRQAPGQGLEWVSTIHKSGGITTYADSVKGRFTISRDNAKNTLYLQMNNLESEDTAVYYCAKALRAHNSDYVGRNALGSWGEGTLVTVSS
[7]
  minimal absorbance value (GT1b-TeNT inhibition): 0.8 A450
[8]
  Effective SDA Concentration at A450 0.56: > 1000 ng/mL
[1]
  maximal absorbance value: 0.56 A450
[2]
  Effective SDA Concentration at A450 0.2: 164 ng/mL
[9]
  maximal absorbance value: 0.05 A450
[10]
  Effective SDA Concentration at A450 0.15: > 1000 ng/mL
  binding result: no binding (tested: 1000 ng/ml (A450 0.15 not reached))
[11]
  maximal absorbance value: 0.07 A450
[12]
  Effective SDA Concentration at A450 0.15: > 1000 ng/mL
[13]
  maximal absorbance value: 0.14 A450
[14]
  Effective SDA Concentration at A450 0.3: > 1000 ng/mL

B7: SVT15-3FW4M-GS2-SVG13M4-H6 (bispecific antibody)
chain: QVQLQESGGGLVQTGGSLRLSCRASGRAFANYHFGWFRQAPGKDREFVASISWKGGSTYYANFALGRFTSSVDRAESSVYLQMSGLTPEDTATYYCAAHDGGDWNYHTGMDYWGQGTQVTVSSGGGGSGGGSEVQLVESGGGLVQPGGSLRLSCEASGFTFDDYGMSWVRQAPGKGLEWVSSLTPNGGSTYYADSVKGRFTISRDNAKNTLYLQMNSLKPEDTALYYCAKNSYYGAMDYWGQGTQVTVSSHHHHHH
[15]
  Kd: 20.9 pM
  koff: 8.15e-06 s⁻¹
  kon: 390000 M⁻¹ s⁻¹

B8: SVT06L (VHH)
VHH: QVQLQESGGGSVQAGGSLRLSCTASELSYDDYTIAWFRRAAGEGRVEDGEGVASITKSYDRAYDNKINYGHSVKGRFTISRDNAKNTVYLQMTDLLPSDTAVYYCALDITPPGGVGASLTEGFLFDYWGQGTQVTVSS
[3]
  Kd: 224 pM
  koff: 0.000113 s⁻¹
  kon: 503000 M⁻¹ s⁻¹

B9: SVT06-SVT16-L123Q-GS2-SVG13M4-H6 (bispecific antibody)
chain: QVQLQESGGGSVQAGGSLRLSCTASELSYDDYTIAWFRRAAGEGRVEDGEGVASITKSYDRAYDNKINYGHSVKGRFTISRDNAKNTVYLQMTDLLPSDTAVYYCALDITPPGGVGASLTEGFLFDYWGQGTQVTVSSQVQLQESGGGSVQAGDSLRLSCAASGRTISNYAMGWFRQAPGKQREFVAAISRSDNTYYTDSVKGRFTISRDNAKNTLYLQMNSLKPEETAVYYCAADPNLMYESKWKYRALEAWGQGTQVTVSSGGGGSGGGSEVQLVESGGGLVQPGGSLRLSCEASGFTFDDYGMSWVRQAPGKGLEWVSSLTPNGGSTYYADSVKGRFTISRDNAKNTLYLQMNSLKPEDTALYYCAKNSYYGAMDYWGQGTQVTVSSHHHHHH
notes: also called pRL501
[1]
  maximal absorbance value: 0.78 A450
[2]
  Effective SDA Concentration at A450 0.2: 134 ng/mL
